Test results as given in article doi:10.1101/2024.04.17.589973 (2024).
Substitutions are numbered along the chain they refer to. Where no end group is shown, it is not given here.

B1: minibinder 8 with C-terminal Avi-His6 tag (designed binder)
chain: SLEEEAERVVEELVKEFNLSETQEIALRRYAEFAAKAGASEEVIEELLRRVAERLS-{Avi-His6}
modifications: also: biotin (for BLI), position not given here
B2: minibinder 7 with C-terminal Avi-His6 tag (designed binder)
chain: SAMERYVKVLLRTAELAREAGDPEDVRKALEKAELVARILHNEELKEEIREVEEEL-{Avi tag-His6}
modifications: also: biotin
B3: minibinder 7.8 (designed binder)
chain: SAMEYYVKELLRTAEYAREAGDPEYVRKALEQAELVARILHNEELKEEIREVEEEL
modifications: also: biotinylated (site not given here)
B4: minibinder 7.2 (designed binder)
chain: B3 chain with E9V, Q32K
modifications: also: biotin
B5: minibinder 7.9 (designed binder)
chain: B3 chain with K28N
modifications: also: biotinylated (site not given here)
B6: minibinder 7.11 (designed binder)
chain: B3 chain with Y25D
modifications: also: biotin
B7: minibinder 7.3 (designed binder)
chain: B3 chain with E9V
modifications: also: biotin
B8: minibinder 7.6 (designed binder)
chain: B3 chain with Y25D, Q32K
modifications: also: biotin
B9: minibinder 7.5 (designed binder)
chain: B3 chain with E9V, Y25D
modifications: also: biotin
B10: minibinder 7.12 (designed binder)
chain: B3 chain with Y25D, K28N
modifications: also: biotin
B11: minibinder 7.10 (designed binder)
chain: B3 chain with D22E, K28N
modifications: also: biotin
B12: minibinder 7.4 (designed binder)
chain: B3 chain with K8N, E9V, Y25D, Q32K
modifications: also: biotin
B13: minibinder 7.7 (designed binder)
chain: B3 chain with Q32K
modifications: also: biotin
B14: minibinder 8.5 (designed binder)
chain: SLEEEAERVVEELVKEFNLSRTQEIALRRYAEYAARATASEEVIEELLRRVAERLS
modifications: also: biotin (for BLI), position not given here
B15: minibinder 8.4 (designed binder)
chain: B14 chain with T38G
modifications: also: biotin (for BLI), position not given here
B16: minibinder 8.2 (designed binder)
chain: B14 chain with R21E, R36K, T38G
modifications: also: biotin (for BLI), position not given here
B17: minibinder 8.1 (designed binder)
chain: B14 chain with Y33F, R36K, T38G
modifications: also: biotinylated (site not given here)
B18: minibinder 8.3 (designed binder)
chain: B14 chain with R36K, T38G
modifications: also: biotin (for BLI), position not given here
B19: minibinder 6 with C-terminal Avi-His6 tag (designed binder)
chain: SAVELYLELLERSLRLAVEAGDPEDAERILRKARQIARVFNDPELEEIVERMEEILK-{Avi tag-His6}
modifications: also: biotin

These binders were tested against T1, human TLR3 ectodomain (Wuxi Biologics, custom order) (human, UniProt O15455 24-704, biotin (for yeast display)) (assay: BLI).

| Binder | Kd |
| --- | --- |
| B1 | 1200 nM |
| B2 | 440 nM |

Molecular target: T1, human TLR3 ectodomain (Wuxi Biologics, …)
Assay: BLI
Remark: another data set of the same source

| Binder | Kd |
| --- | --- |
| B3 | 40 nM |
| B4 | 17 nM |
| B5 | 95 nM |
| B6 | 45 nM |
| B7 | 29 nM |
| B8 | 24 nM |
| B9 | 1.1 nM |
| B10 | 108 nM |
| B11 | 190 nM |
| B12 | 34 nM |
| B13 | 31 nM |

Molecular target: T1, human TLR3 ectodomain (Wuxi Biologics, …)
Assay: BLI
Remark: another data set of the same source

| Binder | Kd |
| --- | --- |
| B14 | 170 nM |
| B15 | 230 nM |
| B16 | 600 nM |
| B17 | 690 nM |
| B18 | 230 nM |

Molecular target: T1, human TLR3 ectodomain (Wuxi Biologics, …)
Assay: BLI
Remark: another data set of the same source

| Binder | Kd |
| --- | --- |
| B19 | 43 nM |
